Here are results for 15 molecules from patent publication US20020098524A1 (published 2002).

Bounds are passed on as bounds.

For orientation: koff means a measure of how fast the partners let go of each other.

The target of assay [1] is T1, human (h)TNF-α (human, UniProt P01375 77-233).
T1 construct: Bought purified protein; also called TNF-alpha; Tumor Necrosis Factor α
Put plainly: IAsys biosensor, dissociation in 10 mM HEPES/0.05% Tween. On the procedure: The binding and dissociation of phage clone A1, amino acid sequence: RYWQDIP; Table 1, (SEQ ID NO: 3) to TNF-α was monitored using an lAsys AutoPlus Biosensor following the Labsystems Affinity Sensors lAsys Protocol 2.4 ‘Immobilization to Protein Layer: Thiol coupling to avidin’ (Thermo BioAnalysis Corp. Franklin, Mass.). Two cuvettes were first coated with avidin and one (the control) was then blocked with biotin. This was followed by activation of the lysine groups. A 15 μl aliquot of a 1 mg/ml (h)TNF-α solution was added to each cuvette. […] After blocking and washing, phage clone A1, RYWQDIP (SEQ ID NO: 3) was added to give a final titer of 5×10¹¹ pfu/ml.
The dissociation of the phage from the TNF-α is very slow with the dissociation constant estimated as koff<10⁻⁴ sec⁻¹ (10 mM HEPES/0.05% Tween). Washing with a 1×buffer concentrate (at the 70 min time point) only removed a small portion of the phage.

Assay [2] deals with T1, human (h)TNF-α. Put plainly: phage display selection on hTNF-α-coated tube, PCR of phage still bound after acid wash. On the procedure:
A thin-walled PCR tube was coated with the target human (h)TNF-α (BioSource International; Camarillo, Calif.) by incubating 100 μl of 0.5 mg/ml purified TNF-α in PBS overnight at 4° C. in the PCR tube. Excess unbound TNF-α was removed, and the tube was coated overnight at 4° C. with 100 μl of SuperBlock™ blocking buffer (Pierce: Rockford, Ill.) in Tris buffered saline (TBS). The anti-target (SuperBlock™ blocking buffer) was prepared in separate PCR tubes coated overnight at 4° C. with 100 μl of SuperBlock™.
Unbound phage were removed by washing the tube 5 times with 150 μl PBS containing 0.1% Tween-20 at room temperature. Low affinity binders were washed away by incubating with 60 μl of 0.2 M Glycine (pH 2.2) for 6 minutes followed by neutralization with 9 μl M Tris-Cl (pH 9.1). The acid washed population was retained for further analysis. The tube was then washed again 3 times with 150 μl of PBS.
This was due to too much template (i.e. phage) in the PCR reaction, and can be alleviated by decreasing the phage concentration or by decreasing the number of PCR cycles (FIG. 3). To decrease the amount of the 500-700 bp diffuse band, the PCR product was diluted appropriately for subsequent PCR reactions from this starting material to generate more products for sub-cloning purposes.

T1 sequence (P01375 77-233 limits assumed): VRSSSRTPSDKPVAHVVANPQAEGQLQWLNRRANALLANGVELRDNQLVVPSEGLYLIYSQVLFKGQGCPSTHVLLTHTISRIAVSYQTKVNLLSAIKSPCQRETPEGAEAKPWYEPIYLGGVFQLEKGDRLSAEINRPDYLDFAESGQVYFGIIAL

For RYWQDIP (also called T1; phage peptide clone A1) [phage clone A1, amino acid sequence RYWQDIP], the koff in the assay with human (h)TNF-α [1] was less than 0.0001 s⁻¹. THKNTLR [T10 (THKNTLR)]: the binding result with human (h)TNF-α [2] is recorded as “binds”. As to LPILTQT [T12 (LPILTQT)], the binding result with human (h)TNF-α [2] is given as “binds”.

APEPILA [T2 (APEPILA)]: the binding result with human (h)TNF-α [2] was “binds”.

As to ATFPNQS [T5 (ATFPNQS)], the binding result with human (h)TNF-α [2] is listed as “binds”. Still for that read-out and setting: for LSQPIPI [T14 (LSQPIPI)] the value was “binds”. On the same count and under the same terms, as for WTPKPTQ [T4 (WTPKPTQ)], the entry is “binds”. Consider AWHSPSV [T8 (AWHSPSV)], for which, in the assay with human (h)TNF-α [2], the binding result was “binds”. For TMLPYRP [T7 (TMLPYRP)], in the assay with human (h)TNF-α [2], the binding result is “binds”. For QPLRKLP [T15 (QPLRKLP)], the binding result with human (h)TNF-α [2] is “binds”. Still for that read-out and setting: as for GQTHFHV [T11 (GQTHFHV)], the entry is “binds”; as for LTQSFSS [T9 (LTQSFSS)], “binds”. Still for that read-out and setting: for DMIMVSI [T3 (DMIMVSI)] the value was “binds”; for SILPVSH [T13 (SILPVSH)], “binds”; for ASTVGGL [T6 (ASTVGGL)], “binds”.
